This passage reports IC50 results from patent US20030175681A1.

The target in the test is rhCMV (strain 68.1) US28 homolog(s): fractalkine-binding receptor protein expressed on rhCMV-infected rhesus dermal fibroblasts and on rhCMV virions. In words: homologous competition: unlabeled fractalkine displaces 125I-fractalkine from rhCMV-infected rhesus dermal fibroblasts, filter binding.

pIC50: −log10 of the molar value.

Chain of fractalkine (P78423 25-100 limits assumed): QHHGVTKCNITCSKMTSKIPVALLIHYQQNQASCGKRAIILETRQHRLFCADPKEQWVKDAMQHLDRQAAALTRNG

“fractalkine (from UniProt P78423 25-100) (ligand)” gave a pIC50 of 10.36.

For orientation: pIC50 means the negative decadic logarithm of the IC50, by convention in mol/L. The low end stands for a large IC50, the high end for a small IC50.
